Columns and labels:
AidB [1] = molecular target: T1, AidB (Escherichia coli, UniProt P33224 1-541); experiment: EMSA
T1 sequence: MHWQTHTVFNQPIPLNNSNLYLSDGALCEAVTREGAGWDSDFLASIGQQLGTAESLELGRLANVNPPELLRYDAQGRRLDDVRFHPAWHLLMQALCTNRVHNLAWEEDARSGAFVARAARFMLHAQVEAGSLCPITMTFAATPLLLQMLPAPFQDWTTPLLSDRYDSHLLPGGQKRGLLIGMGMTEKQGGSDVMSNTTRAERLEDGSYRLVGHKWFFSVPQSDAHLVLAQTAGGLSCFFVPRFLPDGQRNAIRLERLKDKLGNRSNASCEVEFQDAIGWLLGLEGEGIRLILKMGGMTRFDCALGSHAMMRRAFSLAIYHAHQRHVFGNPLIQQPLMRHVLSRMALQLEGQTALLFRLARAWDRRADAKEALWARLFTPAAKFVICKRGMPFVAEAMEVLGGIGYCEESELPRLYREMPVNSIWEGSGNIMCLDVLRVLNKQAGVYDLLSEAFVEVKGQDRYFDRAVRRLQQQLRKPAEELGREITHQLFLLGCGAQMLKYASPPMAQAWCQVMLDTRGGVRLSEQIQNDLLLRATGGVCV

AidB [2] = molecular target: T1, AidB; experiment: competition
AidB [3] = molecular target: T1, AidB; experiment: competition; remark: listed apart in the source

B1: rrnB P1wt (+UP), biotinylated probe (dsDNA)
DNA 1: AGAAAATTATTTTAAATTTCCTCTTGTCAGGCCGGAATAACTCCCTATAAT
DNA 2: ATTATAGGGAGTTATTCCGGCCTGACAAGAGGAAATTTAAAATAATTTTCT
B1: binds (AidB [1]).

B2: rrnB P1wt (+UP), unlabelled competitor (dsDNA)
DNA 1: B1 DNA 1
DNA 2: B1 DNA 2
B2: binds (AidB [2]).

B3: rrnB P1ΔUP (-UP), unlabelled competitor (dsDNA)
DNA 1: CCTCTTGTCAGGCCGGAATAACTCCCTATAAT
DNA 2: ATTATAGGGAGTTATTCCGGCCTGACAAGAGG
B3: no binding (AidB [3]).

Reference: paper PMC3162126
